Assay results from patent US20130123173A1, “CREATION OF OXIDATION-RESISTANT HDL MIMETIC PEPTIDES” (The Regents of the University of California, priority 2010, published 2013).
“Also recorded” adds a separate entry of the source.

Assays:
J774 macrophages [1] = test: Cholesterol efflux from cAMP-treated J774 macrophages (ABCA1 cholesterol efflux); type: cell-based; details: for change of cholesterol efflux activity upon exposure to acrolein: excess molar acrolein; for cholesterol efflux activity: no oxidant exposure, lipid-free peptides, cAMP-treated J774 macrophages
Experimental: FIG. 1 provides data showing the sensitivity of ABCA1 efflux peptide ATI-5261 and an analog to acrolein. ATI-5261 was engineered with arginine (R) in place of lysine (K) at positions 5 and 25 (K5, 25/R), creating an oxidation-resistant analog. […] Panel B. Dependence of cholesterol efflux on ABCA1 expression, as judged with and without cAMP (no oxidant exposure). Peptides were used in lipid-free form at […]. Panel C. Peptides were incubated (37° C., 24 h) with acrolein at a molar ratio of 50:1 (acrolein:peptide) in the presence of DTPA; excess aminoguanidine was added to terminate reactions and peptides dialyzed to PBS. Cholesterol efflux (8 h) was assessed using cAMP-treated J774 cells and peptides at 2 mg/ml. Values are % of control efflux with peptides not treated with acrolein.
Panel D. Impact of varying molar ratio of acrolein relative to ATI-5261 on cholesterol efflux from cAMP treated J774 cells.
Suitable cholesterol efflux assays are described in, e.g., Bielicki, J. K and Oda, M. N., Biochemistry, 41:2089-2096 (2002); Jia et al., Biochem. Biophys. Res. Common., 297:206-213 (2002). In some embodiments, a polypeptide known to mediate cholesterol efflux (e.g., helix 9/10 of Apo A-I) is used to screen for additional mediators of cholesterol efflux in a cell based assay. For example, cell lines in which cholesterol efflux can be enhanced using a cAMP analog that up-regulates ABCA1 protein expression (e.g., J774 macrophages) can conveniently be used to assess the ability of a polypeptide of the present invention to mediate cholesterol efflux. The cells are incubated with labeled cholesterol (e.g., [^3H]cholesterol) under conditions appropriate for cholesterol uptake by the cells. Thus, cAMP or cAMP analogs (e.g., CPT-cAMP) are incubated with the cells for a suitable time before the initiation of cellular cholesterol efflux, i.e., prior to contacting the cells with a test polypeptide. Measurement of labeled cholesterol appearing in the medium is used to determine the cholesterol efflux mediating activity of the test polypeptide.

[2] = α-helical content (secondary structure) of peptides with and without acrolein; type: physicochemical; details: for α-helical content: 10 mM phosphate buffer (pH=7.4); for α-helical content, comparison in words: FIG. 2 legend, vs ATI-5261 control or vs untreated peptide
Experimental: FIG. 2 provides data showing the % α-helical content of ATI-5261 and the K5, 25→R analog peptide. Peptides in 10 mM phosphate buffer (pH=7.4) were analyzed. […] Biosyn. denotes source (commercial vendor) used to synthesize peptides (same for all peptides).

[3] = test system: macrophage reverse cholesterol transport; test: Macrophage reverse cholesterol transport upon exposure to oxidative stress; type: in vivo; details: vs ATI-5261
[4] = SDS-PAGE analysis of peptides following exposure to acrolein (cross-linking); type: physicochemical; details: 20-fold molar excess of acrolein, 37° C., 20 h
Experimental: Peptides ATI-5261 and K5,25 were exposed to 20-fold molar excess of acrolein or buffer alone and incubated 37° C. for 20 h. Lane 1—MW standards (kDa); lane 2, K5,25→R peptide exposed to acrolein; Lane3, ATI-5261 exposed to acrolein; lane 4, K5, 25→R peptide buffer control; Lane 5, ATI-5261 buffer control. Peptide loads were 3 μg/well.

J774 macrophages [5] = details: background statement; cited from earlier work
atherosclerosis = details: mice fed high-fat western-diet; cited from earlier work
ABCA1 = ABCA1 (UniProt P41233 1-2261, limits assumed); test: cell-based or functional assay
ABCA1, sequence (P41233 whole entry): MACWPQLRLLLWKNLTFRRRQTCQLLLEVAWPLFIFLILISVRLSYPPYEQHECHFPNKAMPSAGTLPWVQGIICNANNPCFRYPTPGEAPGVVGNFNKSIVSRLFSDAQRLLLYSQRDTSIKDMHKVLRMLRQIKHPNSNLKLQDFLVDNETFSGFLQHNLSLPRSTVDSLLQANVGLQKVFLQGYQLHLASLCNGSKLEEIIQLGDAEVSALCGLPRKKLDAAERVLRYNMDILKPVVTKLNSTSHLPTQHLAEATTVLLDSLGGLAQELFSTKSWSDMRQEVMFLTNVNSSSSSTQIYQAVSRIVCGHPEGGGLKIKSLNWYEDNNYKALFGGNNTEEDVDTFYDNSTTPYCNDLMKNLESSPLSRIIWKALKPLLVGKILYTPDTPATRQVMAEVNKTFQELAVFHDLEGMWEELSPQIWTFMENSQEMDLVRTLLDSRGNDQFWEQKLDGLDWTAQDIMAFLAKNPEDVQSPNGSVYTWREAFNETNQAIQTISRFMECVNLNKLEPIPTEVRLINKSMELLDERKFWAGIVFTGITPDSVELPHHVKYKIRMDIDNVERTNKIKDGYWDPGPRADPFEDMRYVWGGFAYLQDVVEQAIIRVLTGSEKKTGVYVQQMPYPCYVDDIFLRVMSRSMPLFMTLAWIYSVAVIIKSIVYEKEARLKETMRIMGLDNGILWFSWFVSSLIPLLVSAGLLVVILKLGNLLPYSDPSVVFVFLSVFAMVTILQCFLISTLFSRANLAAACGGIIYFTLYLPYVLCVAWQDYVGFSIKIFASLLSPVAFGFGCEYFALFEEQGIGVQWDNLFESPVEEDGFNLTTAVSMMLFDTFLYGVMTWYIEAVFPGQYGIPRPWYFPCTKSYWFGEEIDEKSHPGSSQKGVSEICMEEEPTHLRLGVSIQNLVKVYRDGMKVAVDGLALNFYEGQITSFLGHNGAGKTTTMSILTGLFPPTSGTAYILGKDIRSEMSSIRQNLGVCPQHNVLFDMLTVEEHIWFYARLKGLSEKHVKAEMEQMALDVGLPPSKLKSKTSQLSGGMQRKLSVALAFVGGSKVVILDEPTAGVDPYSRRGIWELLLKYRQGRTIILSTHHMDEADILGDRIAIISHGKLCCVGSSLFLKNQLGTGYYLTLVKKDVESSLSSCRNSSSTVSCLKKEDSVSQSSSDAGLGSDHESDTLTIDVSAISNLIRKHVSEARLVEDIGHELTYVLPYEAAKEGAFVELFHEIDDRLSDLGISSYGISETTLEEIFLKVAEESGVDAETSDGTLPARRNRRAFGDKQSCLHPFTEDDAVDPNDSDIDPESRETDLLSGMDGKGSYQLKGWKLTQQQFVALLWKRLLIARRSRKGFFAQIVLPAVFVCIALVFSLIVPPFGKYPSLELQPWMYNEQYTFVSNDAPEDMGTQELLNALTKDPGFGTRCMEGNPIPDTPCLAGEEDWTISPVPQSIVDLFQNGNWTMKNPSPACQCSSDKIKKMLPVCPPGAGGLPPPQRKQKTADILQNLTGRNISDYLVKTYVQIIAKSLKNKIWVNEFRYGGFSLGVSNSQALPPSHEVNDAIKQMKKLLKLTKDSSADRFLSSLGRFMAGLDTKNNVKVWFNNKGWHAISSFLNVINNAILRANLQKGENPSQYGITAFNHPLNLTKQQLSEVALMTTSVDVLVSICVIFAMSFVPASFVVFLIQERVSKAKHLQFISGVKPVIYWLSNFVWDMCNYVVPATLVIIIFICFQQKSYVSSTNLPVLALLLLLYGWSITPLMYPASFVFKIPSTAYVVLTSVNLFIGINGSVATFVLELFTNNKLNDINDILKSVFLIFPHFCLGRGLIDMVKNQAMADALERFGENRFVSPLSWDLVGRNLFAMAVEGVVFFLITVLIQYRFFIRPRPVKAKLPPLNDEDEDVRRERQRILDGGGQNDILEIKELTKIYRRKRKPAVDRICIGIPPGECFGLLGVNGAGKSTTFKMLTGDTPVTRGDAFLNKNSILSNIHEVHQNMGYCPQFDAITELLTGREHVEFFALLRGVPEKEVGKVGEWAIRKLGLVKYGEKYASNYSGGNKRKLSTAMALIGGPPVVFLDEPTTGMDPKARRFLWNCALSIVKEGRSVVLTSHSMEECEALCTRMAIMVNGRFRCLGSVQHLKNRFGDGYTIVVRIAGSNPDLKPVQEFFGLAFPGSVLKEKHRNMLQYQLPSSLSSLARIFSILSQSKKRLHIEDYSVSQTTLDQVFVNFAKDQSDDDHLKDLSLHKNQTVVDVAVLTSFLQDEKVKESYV

| reduction of cholesterol efflux activity after acrolein exposure, molar acrolein:peptide ratio 5:1 (ABCA1) [%] | reduction of cholesterol efflux activity after acrolein exposure, molar acrolein:peptide ratio 10:1 (ABCA1) [%] | reduction of cholesterol efflux activity after acrolein exposure, molar acrolein:peptide ratio 20:1 (ABCA1) [%] | Molecule | augmentation of cholesterol efflux activity by acrolein (J774 macrophages [1]; acrolein-treated peptide vs untreated peptide) [%] | change of cholesterol efflux activity upon exposure to acrolein (J774 macrophages [1]) | cholesterol efflux activity (J774 macrophages [1]) | cholesterol efflux activity (J774 macrophages [1]; listed as K→R) | α-helical content ([2]; +Acrolein) [%] | α-helical content, comparison in words [2] | α-helical content ([2]; no acrolein) [%] | macrophage reverse cholesterol transport [3] | cross-linking of the peptide after acrolein treatment [4] | molar potency for ABCA1 cholesterol efflux relative to native apoA-I (J774 macrophages [5]) | effect on atherosclerosis (atherosclerosis) |
| --- | --- | --- | --- | --- | --- | --- | --- | --- | --- | --- | --- | --- | --- | --- |
| – | – | – | EVRSRLEEWFAAFREFAEEFLARLRS [K5,25→R, ATI-5261 with arginine in place of lysine at positions 5 and 25] | ~70 | increased upon exposure to acrolein | stimulated cholesterol efflux (4 h) efficiently | no effect on cholesterol efflux activity | 72.6 | lower α-helical content compared to the ATI-5261 control; also recorded: increase in α-helical content | 56.8 | greatly improved macrophage reverse cholesterol transport | – | – | – |
| – | – | – | EVRSKLEEWFAAFREFAEEFLARLKS (synthetic amphipathic alpha helix HDL mimetic peptide ATI-5261 susceptible to oxidation that stimulates ATP binding cassette protein ABCA1-dependent cholesterol efflux based on apolipoprotein AI (ApoA-I) alpha-helical motif) [26-mer prototype/parent HDL mimetic ABCA1 efflux peptide, oxidation susceptible, reference compound] | – | marked decrease in cholesterol efflux activity | stimulated cholesterol efflux (4 h) efficiently | – | 48.3 | significantly lower helical content | 72.7 | – | substantial cross-linking | nearly the same molar potency as native apoA-I | reduce substantial atherosclerosis |
| 50 | 70 | 93 | EVRSKLEEWFAAFREFAEEFLARLKS [ATI-5261] | – | – | – | – | – | – | – | – | – | – | – |
